Laboratory results: US20130303393A1

Molecular target: NlpA-80R(scFv)

B1: M18.1 Hum IgG (antibody, V domains shown)
VH: EVQLVESGGGLVQPGGSLRLSCADSGYAFNSSWMNWVRQAPGKGLEWVGRIYPGDGDSNYNGKFEGRAIISADKSSSTAYLQMNSLRAEDTAVYYCARSGLLRYAMDYWGQGTLVTVSS
VL: DIQMTQSPSSLSASVGDRVTVTCRASQGIRNYLNWYQQKPGKAPKFLIYYTSRLLPGVPSRFSGSGSGTDYTLTINSLEQEDIATYYCQQGNTPPWTFGQGTKVEIKR
**Q.** How did the M (FL1-Height) turn out when B1 was run?
**A.** 4
